Data as given in publication PMC7960628.
Blank lines part the entries; values can stand above or below the substance they belong to.

Columns and labels:
Assay in all cases: SEC; gel filtration chromatography of the Ni-NTA purified motif-foldon fusion proteins; trimer
[1] = target: 6xHis-(GPP)5GFQGEK(GPP)5-foldon
[2] = target: 6xHis-(GPP)5GPKGER(GPP)5-foldon
[3] = target: 6xHis-(GPP)5GSQGEK(GPP)5-foldon (mouse | not stated)

stoichiometry N [1]: 3
Substance: 6xHis-(GPP)5GFQGEK(GPP)5-foldon (designed binder)

stoichiometry N [2]: 3
Substance: 6xHis-(GPP)5GPKGER(GPP)5-foldon (designed binder)

stoichiometry N [3]: 3
Substance: 6xHis-(GPP)5GSQGEK(GPP)5-foldon (designed binder)
